In patent US20240279345A1, “ALPHA 5 BETA 1 INTEGRIN BINDING AGENTS AND USES THEREOF” (PASITHEA THERAPEUTICS CORP., priority 2021, published 2024):

Target: T1, recombinant human α5β1 integrin (rh-α5β1) (Homo sapiens, UniProt P05556+P08648)
T1 construct: purchased R&D Systems 3230-A5
Experiment: Plate-based ELISA reactivity to rh-α5β1
Format: binding
Conditions: selected for further characterization among α5 specific hybridomas (28 selected)
Procedure, shortened: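 Hybridoma supernatants, diluted 1:10, incubated 1 h at RT on wells coated with rh-α5β1 at 1 μg/mL in PBS with 0.5 mM MgCl2, MnCl2, CaCl2 and blocked with 2% BSA. Detection via biotinylated goat anti-mouse, poly-HRP streptavidin and TMB; absorbance 450 nm.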

T1 sequence (P08648 42-894 limits assumed): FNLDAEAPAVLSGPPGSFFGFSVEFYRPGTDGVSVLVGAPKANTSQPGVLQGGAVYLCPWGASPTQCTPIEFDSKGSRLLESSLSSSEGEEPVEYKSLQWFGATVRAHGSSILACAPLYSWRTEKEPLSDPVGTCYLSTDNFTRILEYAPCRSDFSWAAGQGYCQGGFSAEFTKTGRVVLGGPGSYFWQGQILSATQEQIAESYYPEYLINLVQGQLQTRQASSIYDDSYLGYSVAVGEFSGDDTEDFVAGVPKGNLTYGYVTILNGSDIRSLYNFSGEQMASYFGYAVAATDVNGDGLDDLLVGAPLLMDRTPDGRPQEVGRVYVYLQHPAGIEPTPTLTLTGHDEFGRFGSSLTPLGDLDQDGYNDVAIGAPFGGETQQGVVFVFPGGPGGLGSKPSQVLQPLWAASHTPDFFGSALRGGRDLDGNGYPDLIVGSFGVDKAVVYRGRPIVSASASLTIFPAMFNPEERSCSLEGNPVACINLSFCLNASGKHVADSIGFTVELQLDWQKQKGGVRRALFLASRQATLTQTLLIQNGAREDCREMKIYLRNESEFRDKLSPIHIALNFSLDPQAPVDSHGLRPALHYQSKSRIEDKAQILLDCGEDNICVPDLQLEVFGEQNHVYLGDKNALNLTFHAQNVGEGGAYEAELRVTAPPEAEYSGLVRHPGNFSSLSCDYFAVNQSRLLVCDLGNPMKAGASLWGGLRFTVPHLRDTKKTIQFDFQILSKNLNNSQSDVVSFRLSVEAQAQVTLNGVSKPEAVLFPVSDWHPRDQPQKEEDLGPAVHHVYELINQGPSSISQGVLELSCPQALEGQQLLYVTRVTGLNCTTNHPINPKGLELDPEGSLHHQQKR
T1 sequence (P08648 895-995 limits assumed): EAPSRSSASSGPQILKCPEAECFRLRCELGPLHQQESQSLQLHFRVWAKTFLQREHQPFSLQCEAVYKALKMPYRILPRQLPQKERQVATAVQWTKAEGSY
T1 sequence (P05556 21-728 limits assumed): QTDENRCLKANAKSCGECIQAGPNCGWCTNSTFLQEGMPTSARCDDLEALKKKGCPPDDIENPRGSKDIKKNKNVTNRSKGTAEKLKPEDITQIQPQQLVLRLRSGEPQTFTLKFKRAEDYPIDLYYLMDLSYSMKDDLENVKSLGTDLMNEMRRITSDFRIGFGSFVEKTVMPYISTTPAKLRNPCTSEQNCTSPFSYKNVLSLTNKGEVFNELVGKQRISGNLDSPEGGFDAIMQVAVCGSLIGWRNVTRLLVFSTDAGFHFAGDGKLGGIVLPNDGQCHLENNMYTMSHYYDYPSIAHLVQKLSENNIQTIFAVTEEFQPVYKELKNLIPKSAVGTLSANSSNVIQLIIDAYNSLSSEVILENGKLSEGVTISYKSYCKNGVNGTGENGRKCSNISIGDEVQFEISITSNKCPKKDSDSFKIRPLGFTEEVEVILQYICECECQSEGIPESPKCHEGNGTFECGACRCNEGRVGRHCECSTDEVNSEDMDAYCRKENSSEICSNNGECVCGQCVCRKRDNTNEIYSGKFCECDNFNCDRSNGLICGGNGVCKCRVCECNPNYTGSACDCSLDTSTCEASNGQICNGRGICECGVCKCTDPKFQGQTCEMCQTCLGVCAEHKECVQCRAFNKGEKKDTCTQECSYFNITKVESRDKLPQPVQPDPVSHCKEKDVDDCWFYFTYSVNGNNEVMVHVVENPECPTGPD

B1: A2-7A05: anti-α5β1 antibody, VH SEQ ID NO:77, VL SEQ ID NO:78; tested as mouse hybridoma antibody and as human IgG4 chimera (antibody, V domains shown)
VH: QVQLQQPGAELVKPGASVKLSCKASGYTFTIYWINWVKQRPGQGLEWIGKIYPGSISTDYNEKFKSKATLTVDTSSSTAYMQLSSLTSDDSAVYYCAITGTGGLAYWGQGTLVTVSA
VL: ENVLTQSPAIMSASLGEKVTMTCRASSSVNYMYWYQQKSDASPKLWIYFTSSLAPGVPGRFSGSGSGNSYSLTISTMEGEDAATYYCQQFTTSPFTFGSGTKLEIK
modifications: A2-7A05 VH Sequence; A2-7A05 VL Sequence
notes: tested as mouse hybridoma antibody and as human IgG4 chimera
Selected Human α5 Specific: Yes
